B1: TPR t1 (parent)
chain: GACCAAUCUGCCCUCAGAGCUCGAGAACAUCUUCGGAUGCAGAGGAGGCAGGCUUCGGUGGCGCGAUAGCGCCAACGUCCUCAACCUCCAAUGCAUCCCACCACAUGAUGAUGCCUGAAGAGCCUUGGUUUUUUG

Variants of: B1
Test: polymerase ribozyme fitness, log enrichment relative to wild type (log ratio); higher = more active; in vitro selection for triplet polymerase activity
Summary of the method: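 Fitness compares each genotype's enrichment to that of the wild type on a logarithmic scale, averaging replicates with inverse-variance weights. The logarithm is base 2. Enrichment came from Illumina sequencing of input and output libraries after one triplicate round of in vitro selection, which included frozen incubation at −7 °C, of PCR-built, transcribed mutant libraries of each subunit of a heterodimeric triplet polymerase ribozyme. Only genotypes with ≥10 input reads and ≥1 read per output were kept.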

Going from A18G A74C C79U to G17U C114U U125A, the “polymerase ribozyme fitness (log ratio)” value falls from -4.7 to -5.53.

Going from A18U G45U G63U G71C G110C C114G C124U to A18G G19U C73A C79U, the “polymerase ribozyme fitness (log ratio)” value rises from -7.92 to -1.75.

Going from A18U G57U C94G U112G to G19A A118G C124G, the “polymerase ribozyme fitness (log ratio)” value rises from -5.68 to -1.63.

Compared with A18C A43U A121G, A18G G35A G69A G117A is lower in “polymerase ribozyme fitness (log ratio)” value: 0.81 for the first, -5.21 for the second.

Going from A18U U54C A83G U109A to A18G U132A, the “polymerase ribozyme fitness (log ratio)” value rises from -6.59 to -3.07.

Going from A18U G48U G52U G69U C79G to G19U A41C U92A C94U C115U U133G, the “polymerase ribozyme fitness (log ratio)” value falls from -2.76 to -5.87.

Going from A18U C86G G113U to G17A G63C U109A C115A, the “polymerase ribozyme fitness (log ratio)” value falls from -4.47 to -6.25.

Going from A18U C34U G61C A74C A100C G107U G110C to G19U A43C, the “polymerase ribozyme fitness (log ratio)” value rises from -7.86 to -3.38.

Compared with G17C G61A C82A, G17A C72G is higher in “polymerase ribozyme fitness (log ratio)” value: -4.03 for the first, -3.28 for the second.

Going from G17A C72U to A18U C114G, the “polymerase ribozyme fitness (log ratio)” value falls from -2.29 to -4.17.

Going from A18U C114A to G17C A121G U133A, the “polymerase ribozyme fitness (log ratio)” value rises from -2.02 to -1.73.

Compared with G17U G23U A74U C123G, A18U G42A C53G C85U C89A is higher in “polymerase ribozyme fitness (log ratio)” value: -5.53 for the first, -3.31 for the second.

First: G17C C85G
Second: A18U U96C U112A
The “polymerase ribozyme fitness (log ratio)” value of the first is lower: -6.06 for the first, -1.44 for the second.

Compared with G17A A46U, G17C C49A C82U C114U is lower in “polymerase ribozyme fitness (log ratio)” value: -4.52 for the first, -5.49 for the second.

First: A18U A27G C53A G71C C85G
Second: G19A C34A C89A
The “polymerase ribozyme fitness (log ratio)” value of the first is lower: -8.07 for the first, -6.24 for the second.

First: A18C G128C
Second: A18C G39A
The “polymerase ribozyme fitness (log ratio)” value of the first is lower: -5.12 for the first, -3.32 for the second.

G19A A95U C101U and G17A G71A are within 0.2 log units of each other in “polymerase ribozyme fitness (log ratio)” value: -3.88 for the first, -4.07 for the second.

First: A18G C123U U132A
Second: G17A G47A A111U
The “polymerase ribozyme fitness (log ratio)” value of the first is higher: -2.14 for the first, -5.85 for the second.

First: G19U A74G
Second: G17C C28U G61U C85A G110A G120C
The “polymerase ribozyme fitness (log ratio)” value of the first is lower: -3.02 for the first, -1.25 for the second.

Going from A18C U55C C62U to G17U G69U A84C, the “polymerase ribozyme fitness (log ratio)” value rises from -3.73 to 0.342.

First: A18G A24G U55A
Second: G17U C89U
The “polymerase ribozyme fitness (log ratio)” value of the first is lower: -5.14 for the first, -1.77 for the second.

First: A18C C72G
Second: A18C C72A
The “polymerase ribozyme fitness (log ratio)” value of the first is lower: -3.9 for the first, -2.45 for the second.

A18C C72U and G17U C49U are within 0.2 log units of each other in “polymerase ribozyme fitness (log ratio)” value: -2.49 for the first, -2.42 for the second.

First: A18U C22A G113A
Second: G19A A43U C101A U129G
The “polymerase ribozyme fitness (log ratio)” value of the first is higher: -3.79 for the first, -4.15 for the second.

First: A18C A37C G127U U129A
Second: G17U C70U U78G
The “polymerase ribozyme fitness (log ratio)” value of the first is lower: -3.43 for the first, -3.17 for the second.

Going from A18U G60A to A18U C40G C114A, the “polymerase ribozyme fitness (log ratio)” value falls from -2.24 to -3.02.

Going from A18U G39U G48U C73U A84C to G17U C40G A90G A95U C115G, the “polymerase ribozyme fitness (log ratio)” value rises from -4.34 to -3.65.

Going from G19U U87G G110C U112G to A18C A26G G71A G93A U112C G122A, the “polymerase ribozyme fitness (log ratio)” value rises from -6.7 to -4.45.

Going from G19U C72U A84C to A18U G45U U87C A90G, the “polymerase ribozyme fitness (log ratio)” value rises from -2.82 to -2.54.

Compared with A18C C72G C124A U129A, G17U C70U U87A is lower in “polymerase ribozyme fitness (log ratio)” value: -3.56 for the first, -4.04 for the second.

Compared with G17C C62G C64U A68U U81G C114G, A18U A27G C72A C115A G120C is higher in “polymerase ribozyme fitness (log ratio)” value: -6.46 for the first, -3.08 for the second.

G19A G42U G71U G122A and A18C C49U C72G are within 0.2 log units of each other in “polymerase ribozyme fitness (log ratio)” value: -3.83 for the first, -3.75 for the second.

Compared with A18U C124A U126A, G19U G61C is lower in “polymerase ribozyme fitness (log ratio)” value: -1.36 for the first, -4.85 for the second.

Going from A18G G42C C99A to A18C G120A, the “polymerase ribozyme fitness (log ratio)” value rises from -5.32 to -1.48.

Going from G17C G42A A74G A84C A91U to G19A G63A U92A, the “polymerase ribozyme fitness (log ratio)” value falls from -4.35 to -4.56.

First: A18C C40G
Second: A18G C56G C114A
The “polymerase ribozyme fitness (log ratio)” value of the first is higher: -4.09 for the first, -4.99 for the second.

Going from G19U A50C C98U G110A A121G to A18C C20U G110C, the “polymerase ribozyme fitness (log ratio)” value rises from -6.95 to -6.35.

First: A18U U38G G71A C89A U129A
Second: A18G G57U U59C C62A C94U G117U
The “polymerase ribozyme fitness (log ratio)” value of the first is lower: -6.64 for the first, -5.27 for the second.

Compared with G17C C49A C72U C82U C114U, G17U G48C is higher in “polymerase ribozyme fitness (log ratio)” value: -4.65 for the first, -2.61 for the second.

Going from G19U U55C to G19A G60C A75U A90C C98U C114A, the “polymerase ribozyme fitness (log ratio)” value rises from -4.3 to -3.78.

Compared with A18G U131A, A18U G60U U130C is higher in “polymerase ribozyme fitness (log ratio)” value: -2.69 for the first, -1.84 for the second.

First: G19A C70G C85U C114G
Second: G17A G71A C72U C94G C123G
The “polymerase ribozyme fitness (log ratio)” value of the first is lower: -7.51 for the first, -5.54 for the second.

From the RNAGym collection of RNA variant scans (doi:10.1073/pnas.2313332121)
